Here are results for 4 molecules from US20260242489A1 (HUAHUI HEALTH, published 2026).

The target of assay [1] is T1, mEGFR ECR (His6-Avi-tagged) (mouse, UniProt Q01279 25-644).
T1 construct: also called mouse EGFR; not shown: His6-Avi tag
The assay can be described thus: SPR (Biacore T200), mEGFR ECR analyte, steady-state affinity model. For orientation: Surface plasmon resonance follows binding to a sensor surface in real time, without labels.

In assay [2] the target is T2, hEGFR ECR-His6-Avi-Biotin (human, UniProt P00533 25-642, biotinylated on the Avi tag using BirA ligase).
T2 construct: also called WT hEGFR ECR; human EGFR ECD; not shown: His6-Avi tag
The assay can be described thus: SPR (Biacore T200), antibody captured, hEGFR ECR analyte, steady-state affinity model, pH 7.4.

Assay [3] deals with T3, human EGFR, full-length, on A-431 cells or CT26-hEGFR cells (human, UniProt P00533 25-1210).
T3 construct: A-431 cells (own EGFR) and mouse CT26 cells transfected with human EGFR; the cell line is named under assay
Kind of assay: flow cytometry on A-431 cells, pH 6.5. A general note: Flow cytometry measures light scatter and fluorescence of single cells or particles in a stream.
Method: (§1) Antibody binding to cells was then assessed based on the fluorescence intensity for FITC.

Assay [4] addresses T2, hEGFR ECR-His6-Avi-Biotin. The assay can be described thus: competition ELISA: hEGFR ECR on plate, IgG1 titrated in a mixture with EGF-mFc, bound EGF-mFc detected with anti-mFc-HRP; pH 7.4 [table]. For orientation: In an ELISA, binding on a coated surface is turned into a signal by an enzyme label.
Assay [5] has as its target T2, hEGFR ECR-His6-Avi-Biotin. The assay can be described thus: SPR (Biacore T200), antibody captured, hEGFR ECR analyte, steady-state affinity model, pH 6.5.
Method: (§2) Kinetics analyses of the binding of anti-EGFR antibodies to the ECR of mouse and human EGFR were performed on a Biacore T200 instrument (Biacore, GE Healthcare). Anti-hFc Ab or protein A/G (Thermo Fisher Scientific) was covalently attached to the surface of a CM5 sensor chip using an amine coupling kit (GE Healthcare). […] Binding kinetics were evaluated using a 1:1 Langmuir binding model. The dissociation constant (KD) values were calculated with a steady-state affinity model using the Biacore T200 evaluation software.
Assay [6] concerns the target T1, mEGFR ECR (His6-Avi-tagged). The assay can be described thus: SPR (Biacore T200), antibody captured, mEGFR ECR analyte, steady-state affinity model, pH 6.5.
Method: as §2
For assay [7], the target named is T3, human EGFR, full-length, on A-431 cells …. The assay can be described thus: flow cytometry on CT26-hEGFR cells, pH 7.4.
Method: as §1
Assay [8] deals with T2, hEGFR ECR-His6-Avi-Biotin. Kind of assay: ELISA: hEGFR ECR on plate, IgG1 titrated, anti-hFc-HRP; pH 6.5 [table].
The target of assay [9] is T2, hEGFR ECR-His6-Avi-Biotin. Kind of assay: competition ELISA: hEGFR ECR on plate, IgG1 titrated in a mixture with EGF-mFc, bound EGF-mFc detected with anti-mFc-HRP; pH 6.5 [table].
Assay [10] concerns the target T2, hEGFR ECR-His6-Avi-Biotin. Kind of assay: SPR (Biacore T200), hEGFR ECR analyte, steady-state affinity model.
Method: as §2
The target in assay [11] is T3, human EGFR, full-length, on A-431 cells …. The assay can be described thus: flow cytometry on A-431 cells, pH 7.4.
Method: as §1
For assay [12], the target named is T2, hEGFR ECR-His6-Avi-Biotin. The assay can be described thus: ELISA: hEGFR ECR on plate, IgG1 titrated, anti-hFc-HRP; pH 7.4 [table].
Assay [13] addresses T3, human EGFR, full-length, on A-431 cells …. Kind of assay: flow cytometry on A-431 cells.
Method: as §1
Assay [14] concerns the target T2, hEGFR ECR-His6-Avi-Biotin. Kind of assay: IgG1 ELISA on hEGFR ECR, pH 6.5 and pH 7.4.
The target of assay [15] is T1, mEGFR ECR (His6-Avi-tagged). The assay can be described thus: SPR (Biacore T200), antibody captured, mEGFR ECR analyte, steady-state affinity model, pH 7.4.
Method: as §2
Assay [16] has as its target T3, human EGFR, full-length, on A-431 cells …. Kind of assay: flow cytometry on CT26-hEGFR cells.
Method: as §1
Assay [17] has the same target. The assay can be described thus: flow cytometry on CT26-hEGFR cells, pH 6.5.
Method: as §1
In assay [18] the target is T2, hEGFR ECR-His6-Avi-Biotin. Kind of assay: ELISA: hEGFR ECR on plate, IgG1 titrated, anti-hFc-HRP; pH 7.4 [right panel].
From the text: (§3) Then antibody-hEGFR binding was detected with an HRP-conjugated anti-hFc secondary antibody.
Assay [19] has as its target T2, hEGFR ECR-His6-Avi-Biotin. Kind of assay: ELISA: hEGFR ECR on plate, IgG1 titrated, anti-hFc-HRP; pH 6.0 [right panel].
From the text: as §3
Assay [20] has as its target T2, hEGFR ECR-His6-Avi-Biotin. The assay can be described thus: phage ELISA: biotinylated hEGFR ECR captured on streptavidin plate, phage display scFv titrated, anti-M13-HRP; pH 7.4.
Assay [21] deals with T2, hEGFR ECR-His6-Avi-Biotin. Kind of assay: phage ELISA: biotinylated hEGFR ECR captured on streptavidin plate, phage display scFv titrated, anti-M13-HRP; pH 6.0.

Substitutions are numbered along the chain they refer to. Names and notes keep the numbering of the source.

The term Kd denotes the concentration at which binding is half-saturated. Higher therefore signals lower affinity. As usually defined, the EC50 is the concentration that produces a half-maximal response. In general, IC50 refers to the concentration needed to halve the response being measured.

B1: G532^Ctrl (human IgG1 form) (antibody, V domains shown)
VH: QVQLVQSGAEVKRPGSSVKVSCKASGGISDGSAISWVRQAPGQGLEWMGGIRWWGGITNYAQKFQGRVTITADESTSTAYMELSSLRSEDTAVYYCARDSSLGYYDYFDYWGQGTLVTVSS
VL: QPVLTQPPSVSAAPGQTARITCGGNNIGENHVQWYQQRPGQAPVLVIYYDSTRPSGIPERFSGSNSGNTAALTINSVEAGDEADYYCQAWDDYDPVVFGGGTQLTVLG
notes: G532^V with LCDR1 K31N; also called non-pH-dependent variant of G532
In the case of B1, the “KD ratio (pH 7.4/6.5)” value is 0.586 in assay [1] and 0.599 in [10]. The Kd in [2] was 243 nM; in [5], 406 nM; in [6], 1270 nM; in assay [15], 743 nM. Also, the EC50 turned out to be 0.771 nM in assay [3]; 0.587 nM in assay [7]; 0.837 nM in [8]; 0.554 nM in [11]; 0.635 nM in [12]; 1.25 nM in assay [17]. Besides, the values for the concentration for half-maximal inhibition (IC50) in assay [4] and in [9] were 61.8 nM and 39.5 nM, respectively. The “EC50 ratio (pH 7.4/6.5)” value in assay [13] is 0.718; in assay [16], 0.469. The “EC50 ratio (pH 7.4/pH 6.5)” value in assay [14] is 0.759.

B2: G532 (human IgG1 form) (antibody, V domains shown)
VH: B1 VH
VL: B1 VL with N30K, H31E, S51D, T52D
For the molecule B2, the “KD ratio (pH 7.4/6.5)” value stood at 3.31 in assay [1] and 13.3 in assay [10]. The Kd worked out at 3900 nM in assay [2], 294 nM in assay [5], 547 nM in assay [6] and 1810 nM in [15]. In addition, the EC50 in [3] was determined as 0.528 nM; in assay [7], 15.2 nM; in assay [8] it was 0.69 nM; in [11], 13.7 nM; in assay [12], 5.58 nM; in assay [17], 0.787 nM. Moreover, the IC50 in assay [9] came out at 20.6 nM. Also, the “EC50 ratio (pH 7.4/6.5)” value worked out at 26 in [13] and 19.4 in [16]. Besides, in [14], the “EC50 ratio (pH 7.4/pH 6.5)” value turned out to be 8.08.

B3: 11A10 (full-length human IgG1 form) (antibody, V domains shown)
VH: EVQLVQSGAEVKKPGESLMISCKGSGYSFTNHWIGWVRQMPGKGPEWMGIINPRDSDARYSPSFRGQVTFSVDRSTNTAYLQWTSLKPSDTGMYFCARRDIVVVPAATPSYYYYGMDVWGQGTTVTVSS
VL: DIQLTQSPSSLSASVGDSVTITCRPRQSSSRFVNWYQHKPGKAPKLLISNASDLQHGVPSRFSGRGAGTEFTLTIDSLQPDDVATYYCEQSYRFPHMFGQGTKVEIKR
For B3, the figures for the EC50 in assay [18] and in assay [19] were 58.9 nM and 1.36 nM, respectively.

B4: 11C04 (scFv, part only; not given: scFv linker, domain order, phage fusion, V domains shown, not shown: another chain or arm of the molecule; large carriers; small tags and cut ends)
VH: EVQLVQSGAEVKKPGASVKVSCKASGYTFTSYYMHWVRQAPGQGLEWMGIINPSGGSTSYAQKFQGRVTMTRDTSTSTVYMELSSLRSEDTAVYYCARDLEMAYYDILYGMDVWGQGTLVTVSS
VL: QSALTQPASVSGSAGQSITISCTGTTSDIGRYDYVSWYQQHPGQVPKLMIYDVSNRPSGVSDRFSGSKSGNTASLTISGLQTEDEADYYCSSYTTSGTRVFGGGTKLTVL
For B4, the EC50 (read off the curve) in assay [20] and in assay [21] was 1e+10 cfu/ml each time.
